Key:
[1] = target: tyrocidine A precursor having EG as a leaving group
[2] = target: T1, crude peptide 1 (EG-surugamide B precursor) (not fully specified)
T1 chain: IAIVKIFL

[3] = target: peptide having a polyethylene glycol (PEG) chain therein (EG at the C terminal)
[4] = target: seco-desprenylagaramide C-EG

B1: recombinant TycC-TE (protein)
chain: MGSSHHHHHHSSGLVPRGSHMGGSHKRFESRYGTAILLNQETARNVFCFTPIGAQSVYYQKLAAEIQGVSLYSFDFIQDDNRMEQYIAAITAIDPSGPYTLMGYSSGGNLAFEVAKELEERGYGVTDIILFDSYWKDKAIERTVAETENDIAQLFAEIGENTEMFNMTQEDFQLYAANEFVKQSFVRKTVSYVMFHNNLVNTGMTTAAIHLIQSELEADEEAPVAAKWNESAWANATQRLLTYSGHGIHSRMLAGDYASQNASILQNILQELFILKGSRSHHHHHH
[1]
  peptide cyclization (LC-MS of the reaction product): In an active TycC-TE containing system, it was confirmed that a cyclic peptide, i.e., tyrocidine A, and a small amount of substrate hydrolysate were generated

B2: recombinant SurE (protein)
chain: MGSSHHHHHHSSGLVPRGSHMGAEGAERDAVGALFEELVREHRVTGAQLSVYRDGALSEYATGLASVRTGEPVTPRTGFPFGSVTKFLTAELVMQFVCDGDLDLDDPLAGLLPDLGRAAGPPLGTATVRQLLSHTAGVVDSIEYDEMRGPSYRRFAAACARQPALFPPGLAFSYSNTGYCLLGAVIEAASGMDWWTAMDSCLLRPLGIEPAFLHDPRPGQGGAARPVAEGHALRAGGERAEHVDHMASLSLAAAGGLVGSATDLVTAARPHLADRKTFAQHDLLPEDAVLAMRTCVPDAEPFGLADGWGLGLMRHGTGDGAWYGHDGAVGGASCNLRIHPDRSLALALTANSTAGPKLWEALVARLPEAGLDVGHYALPVPDSAPLAPDAGHLGTYANGDLELMVTHDAAGDLFLTRESYSDYRLSLHEDDLFVARSGEPGALPITGRFVREHPAGPVALLQYGGRAMHRL
[2]
  peptide cyclization (LC-MS of the reaction mixture): a substrate (crude peptide 1, EG-SB precursor, m/z 960.5 [+H]) disappeared by the action of SurE to generate a cyclic peptide (surugamide B (SB), m/z 898.5 [+H])
[3]
  peptide cyclization (reverse-phase HPLC / LC-MS): SurE efficiently circularized also a peptide having a PEG chain therein

B3: SurE (G235L) (protein)
chain: MGSSHHHHHHSSGLVPRGSHMGAEGAERDAVGALFEELVREHRVTGAQLSVYRDGALSEYATGLASVRTGEPVTPRTGFPFGSVTKFLTAELVMQFVCDGDLDLDDPLAGLLPDLGRAAGPPLGTATVRQLLSHTAGVVDSIEYDEMRGPSYRRFAAACARQPALFPPGLAFSYSNTGYCLLGAVIEAASGMDWWTAMDSCLLRPLGIEPAFLHDPRPGQGGAARPVAEGHALRAGGERAEHVDHMASLSLAAALGLVGSATDLVTAARPHLADRKTFAQHDLLPEDAVLAMRTCVPDAEPFGLADGWGLGLMRHGTGDGAWYGHDGAVGGASCNLRIHPDRSLALALTANSTAGPKLWEALVARLPEAGLDVGHYALPVPDSAPLAPDAGHLGTYANGDLELMVTHDAAGDLFLTRESYSDYRLSLHEDDLFVARSGEPGALPITGRFVREHPAGPVALLQYGGRAMHRL
[4]
  peptide cyclization (LC-MS of the reaction mixture): the substrate disappeared by an enzymatic reaction to generate a cyclized product (desprenylagaramide C)

B4: recombinant WolJ (protein)
chain: MNHKVHHHHHHMSAEAKGRGTTISLPLDRLAKEHSVVGGQLAVHHQGTTHTWAFGEEEHDSGRPVSVGTAFALGSTTKALTATSVLQLVSDGDLDLDSPVKTWIEERGAAADHPALNATLRQLLSHTAGLPSDHFDEEAPSLRRWLAGFLTSGDERARASWPTPGSFSYSNIGYAVAGRAVEAATGLPWWQAVRDYLLTPLGTGIGLLPGAPQDGRPLTAAPGHTAHTTPDGRTVVHVVQSTTDAGSAPSGGLAGSAADLVRFARLHLEEPGDLDRSAVADPSVLREMAQPVTGAEPFGLADGWGLGLGHFGPAGRHWLGHDGTLDGSTCHLRIEPRQGTVVALTTNTSSGLALWDSVVEELRECGLDIGLHAPQPPLAAPAATFAECTGTYRNGDLAVTVGIEDQHIVLGLPNGQRDSVAPHTGLFFSGRPGNASLFLGRFVKDVATGEIRALQYSGRTLTREALTARN
seco-wollamide B1-EG
  peptide cyclization (LC-MS of the reaction mixture): the substrate disappeared by an enzymatic reaction to generate a cyclized product (wollamide B1)

Source: patent US20250084127
